From patent US20250154199A1 come the findings set out here.

The target of the assay is Slack KNa channel, wildtype (Slack-B subunit), recombinantly expressed in CHO cells. Nature of the assay: cell-based or functional assay.

For “Magi-1 (Membrane-Associated Guanylate Kinase 1), recombinantly expressed in CHO cells”, the membrane currents of Slack-B on co-expression with Magi-1 came to 2 fold.
